Data: paper PMC7407080, “Methylglyoxal Detoxification Revisited: Role of Glutathione Transferase in Model Cyanobacterium Synechocystis sp. Strain PCC 6803” (mBio, 2020)
One block for each molecule: values may come before it.

Experiments:
[1] = biological target: T1, Sll0067 GST (Synechocystis sp. PCC 6803, UniProt Q55139); test: absorbance at […] nm, GSH conjugation, Michaelis-Menten fit; type: biochemical; conditions: 1 mM GSH; 30 mM Tris-HCl pH 8.0, 1 mM EDTA; 25°C; read-out: affinity (apparent Km)
T1 sequence (Q55139 1-184): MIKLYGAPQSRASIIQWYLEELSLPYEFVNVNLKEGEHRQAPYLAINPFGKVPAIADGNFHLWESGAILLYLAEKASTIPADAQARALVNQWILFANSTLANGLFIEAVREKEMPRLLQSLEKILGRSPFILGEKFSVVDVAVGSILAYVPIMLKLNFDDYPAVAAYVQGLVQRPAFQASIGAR

[2] = biological target: T1, Sll0067 GST; test: initial velocity of GSH-MG conjugation with added S-lactoylGSH; type: biochemical; conditions: activator; co-substrates GSH and MG
[3] = biological target: Sll0067 glutathione transferase (GST) of Synechocystis sp. strain PCC 6803, His-tagged recombinant protein (Synechocystis sp. strain PCC 6803); test: SEC-MALS; 300 ug of purified protein in 300 ul injected at 0.5 ml/min on an analytical Superdex 200 10/300 column, 30 mM Tris-HCl pH 8.0, 200 mM NaCl; miniDAWN TREOS detector and T-rEX refractometer
[4] = substrate: CC(=O)C=O; test: two-substrate steady-state kinetics, remaining MG by DDP fluorescence; secondary plot, allosteric sigmoidal fit; type: biochemical, Synechocystis sp. PCC 6803; conditions: varied GSH, 100 mM potassium phosphate, 1 mM EDTA, pH 7.5, 30°C, Hill number 1.873 ± 0.261
Description: two-substrate steady-state kinetics, remaining MG by DDP fluorescence; secondary plot, allosteric sigmoidal fit on Sll0067 GST

[5] = substrate: S=C=NCCc1ccccc1; test: purified protein; type: biochemical, Synechocystis sp. PCC 6803; conditions: 1 mM GSH, 100 mM phosphate pH 6.5, 25°C
[6] = substrate: S=C=NCc1ccccc1; test: purified protein; type: biochemical, Synechocystis sp. PCC 6803; conditions: 1 mM GSH, 100 mM phosphate pH 6.5, 25°C

Molecule: O=[N+]([O-])c1ccc(Cl)c([N+](=O)[O-])c1 [1-chloro-2,4-dinitrobenzene]
Km [1]: 3800 µM

Molecule: C[C@@H](O)C(=O)SC[C@H](NC(=O)CC[C@H](N)C(=O)O)C(=O)NCC(=O)O [S-D-lactoylglutathione]
initial velocity of GSH-MG conjugation with added S-lactoylGSH [2]: All measured initial velocities of Sll0067 activity were increased by S-lactoylGSH

stoichiometry N [3]: 2
Molecule: Sll0067 glutathione transferase (GST) of Synechocystis sp. strain PCC 6803, His-tagged recombinant protein (enzyme)

B1: Sll0067 GST (Synechocystis sp. PCC 6803 substr. Kazusa) (protein)
chain: MIKLYGAPQSRASIIQWYLEELSLPYEFVNVNLKEGEHRQAPYLAINPFGKVPAIADGNFHLWESGAILLYLAEKASTIPADAQARALVNQWILFANSTLANGLFIEAVREKEMPRLLQSLEKILGRSPFILGEKFSVVDVAVGSILAYVPIMLKLNFDDYPAVAAYVQGLVQRPAFQASIGAR
K0.5 [4]: 221.7 ± 26.3 µM | Km [5]: 31.4 µM | Km [6]: 82.0 µM
